Literature values in patent US20070140974A1, “Targeted nanoparticles for magnetic resonance imaging” (General Electric Company, priority 2005, published 2007).

Assays:
[1] = room temperature, 1.5 Tesla magnetic field
uPAR = uPAR (Homo sapiens, UniProt Q03405)
uPAR, sequence (Q03405 23-305): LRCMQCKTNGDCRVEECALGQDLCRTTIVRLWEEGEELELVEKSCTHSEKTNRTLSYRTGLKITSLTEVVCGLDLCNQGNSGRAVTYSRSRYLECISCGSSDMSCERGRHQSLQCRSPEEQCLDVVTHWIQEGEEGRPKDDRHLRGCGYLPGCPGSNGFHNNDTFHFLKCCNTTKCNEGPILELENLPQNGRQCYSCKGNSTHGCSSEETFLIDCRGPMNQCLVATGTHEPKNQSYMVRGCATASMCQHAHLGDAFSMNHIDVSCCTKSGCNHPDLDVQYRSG

Molecule	R1 relaxivity [1]	binding of uPAR and inhibition of integrin or vitronectin binding (uPAR)
O=C([O-])CN(CCN(CC(=O)[O-])CC(=O)O)CCN(CC(=O)[O-])CC(=O)O.[Gd+3] [Gd-DTPA]	3 mM⁻¹ s⁻¹	–
AEFFKLGPNGYVYLHSA	–	capable of binding uPAR and inhibiting binding of vitronectin
AELDLSTFYDIQYLLRT	–	capable of binding uPAR and inhibiting binding of vitronectin
AEPVYQYELDSYLRSYY	–	capable of binding uPAR and inhibiting binding of vitronectin
AESTYHHLSLGYMYTLN	–	capable of binding uPAR and inhibiting binding of integrin
